One series deals with T1, human GUCY2C (Homo sapiens, UniProt P25092).
T1 construct: expressed in transfected cells; host or cells: HEK cells
Put plainly: Ser40 phosphorylation of Th in HEK cells co-transfected with Th and GUCY2C (western blotting, ratio P-Ser40/Total Th). Type of series: cell-based. The following applies: guanylin 10 μM, 1 hour; for P-Ser40 levels (Fold Change = ratio P-Ser40/Total Th): HEK cells co-transfected with Th and GUCY2C, uroguanylin 1 μM, p<0.01. On the procedure:
FIG. 4. GUCY2C activation increases Ser40 phosphorylation. Immunocytochemistry images (A) and western blotting analysis (B) of HEK cultures transfected with Th or Th+GUCY2C. (C) Co-transfected HEK cells were treated with guanylin (G) or uroguanylin (UroG) and changes in Ser40 phosphorylation were studied. The graph represents the statistical analysis (n=3 for Control, n=6 for Guanylin, n=9 for Uroguanylin; Mean±SEM). Unpaired Student's t-test (p-value: **<0.01).
(§1) FIG. 5. The increase in Ser40 phosphorylation is proportional to the produced amount of cGMP upon GUCY2C stimulation. (A) HEK cultures were treated with guanylin, in the presence or absence of IBMX. […] Unpaired Student's t-test (p-values: ****<0.0001, **<0.01, *<0.05). (B) HEK cells were co-transfected with Th and either the wt GUCY2C or a gain-of-function mutant (R792S). Ser40 phosphorylation was studied following guanylin treatment (G). […] Unpaired Student's t-test (p-values: ***<0.001, **<0.01).
(§2) HEK cells were maintained in 100-mm Petri dishes and grown in DMEM medium supplemented with L-glutamine, penicillin-streptomycin (Pen&Strep) and 10% heat-inactivated fetal bovine serum (HIFBS). Growing conditions were 37° C. and 5% CO2. For every-other-day passages, HEK cultures were split at a 1:3 dilution. From Friday to Monday, the split proportion was doubled for all cell lines. For passaging, cultures were rinsed with PBS and incubated with 1 mL of trypsin during 5 minutes. Cells were resuspended in growth medium and finally split to the proper dilution. The experiments were performed in 12-well plates. For immunocytochemistry analysis, sterile 18-mm coverslips were added prior to the plating. 500 μL of cell resuspension was seeded in each well. If experiments were to be performed 48 hours after the plate preparation, 1:5 was the seeding ratio for HEK cells. When the experiments took place 96 hours post-plating, 1:7 was the working dilution for HEK cells. Unless otherwise stated, HEK cultures were processed 96 hours post-plating.
HEK cells were transfected using the calcium-phosphate method. […]
For orientation: Immunoblotting shows a protein as a band on a membrane.

The test system of series [1] is Th Ser40 phosphorylation (cGMP-derived signaling) in HEK cells. Put plainly: Ser40 phosphorylation of Th in HEK cells transfected with Th (western blotting, ratio P-Ser40/Total Th). Type of series: cell-based, mouse Th in HEK cells. The following applies: 500 μM, 1 hour, 48 hours post-plating, n=6, p<0.0001. On the procedure:
FIG. 3. HEK cells are a suitable model to study GUCY2C-induced Ser40 phosphorylation. (A) RT-qPCR data from intact HEK extracts. Input material was 10 ng of total RNA. Cp corresponds to the cycle number in which the expression starts to be considered positive. (-) represents the water control, which is negative in every case. (B) HEK cultures were transfected with Th and treated with a cGMP analogue 48 hours post-plating. Changes in Ser40 phosphorylation were studied. The graph represents the statistical analysis (n=6; Mean±SEM). Unpaired Student's t-test (p-value: ****<0.0001). Hereon, ‘Fold Change’ corresponds to the ratio P-Ser40/Total Th.
as §2, with “If experiments were to be performed 48 hours after the plate preparation, 1:5 was the seeding ratio for HEK cells. When the experiments took place 96 hours post-plating, 1:7 was the working dilution for HEK cells. Unless otherwise stated, HEK cultures were processed 96 hours post-plating.” left out

The conditions of series [2]: injected into the blood stream; cited from earlier work.
For another series, the target named is T2, GUCY2C R792S mutant (Homo sapiens, UniProt P25092, R792S).
T2 construct: expressed in transfected cells; host or cells: HEK cells
Put plainly: Ser40 phosphorylation in HEK cells co-transfected with Th and GUCY2C gain-of-function mutant R792S versus wt. Type of series: cell-based. The conditions noted are these: HEK cells co-transfected with Th and wt or R792S GUCY2C; FIG. 5B. How it is done: as §1
HEK cells were transfected using the calcium-phosphate method. 12-well plates were refreshed with 500 μL of growth medium before transfection. […] The plasmid mixture was taken into a final concentration of 250 mM CaCl2 in a total volume of 110 μL. A complementary tube was filled with 110 μL of HEPES-buffered saline 2× (HEBS 2×: 1.5 mM Na2HPO4, 50 mM HEPES pH 7.05, 280 mM NaCl). […]
Up to 35 μL of sample was loaded in each slot and run in the presence of tris-glycine buffer and 0.1% SDS. […] After additional washings during 1 hour, blots were exposed to an enhanced chemiluminescence solution and the signal was detected using an Odyssey imager (LI-COR). […] For graph quantifications, ‘Fold Change’ represents the ratio P-Ser40/Total Th. Statistical comparisons between pair of groups correspond to unpaired Student's t-tests, as calculated with GraphPad Prism. […]

T1 sequence (P25092 24-1073): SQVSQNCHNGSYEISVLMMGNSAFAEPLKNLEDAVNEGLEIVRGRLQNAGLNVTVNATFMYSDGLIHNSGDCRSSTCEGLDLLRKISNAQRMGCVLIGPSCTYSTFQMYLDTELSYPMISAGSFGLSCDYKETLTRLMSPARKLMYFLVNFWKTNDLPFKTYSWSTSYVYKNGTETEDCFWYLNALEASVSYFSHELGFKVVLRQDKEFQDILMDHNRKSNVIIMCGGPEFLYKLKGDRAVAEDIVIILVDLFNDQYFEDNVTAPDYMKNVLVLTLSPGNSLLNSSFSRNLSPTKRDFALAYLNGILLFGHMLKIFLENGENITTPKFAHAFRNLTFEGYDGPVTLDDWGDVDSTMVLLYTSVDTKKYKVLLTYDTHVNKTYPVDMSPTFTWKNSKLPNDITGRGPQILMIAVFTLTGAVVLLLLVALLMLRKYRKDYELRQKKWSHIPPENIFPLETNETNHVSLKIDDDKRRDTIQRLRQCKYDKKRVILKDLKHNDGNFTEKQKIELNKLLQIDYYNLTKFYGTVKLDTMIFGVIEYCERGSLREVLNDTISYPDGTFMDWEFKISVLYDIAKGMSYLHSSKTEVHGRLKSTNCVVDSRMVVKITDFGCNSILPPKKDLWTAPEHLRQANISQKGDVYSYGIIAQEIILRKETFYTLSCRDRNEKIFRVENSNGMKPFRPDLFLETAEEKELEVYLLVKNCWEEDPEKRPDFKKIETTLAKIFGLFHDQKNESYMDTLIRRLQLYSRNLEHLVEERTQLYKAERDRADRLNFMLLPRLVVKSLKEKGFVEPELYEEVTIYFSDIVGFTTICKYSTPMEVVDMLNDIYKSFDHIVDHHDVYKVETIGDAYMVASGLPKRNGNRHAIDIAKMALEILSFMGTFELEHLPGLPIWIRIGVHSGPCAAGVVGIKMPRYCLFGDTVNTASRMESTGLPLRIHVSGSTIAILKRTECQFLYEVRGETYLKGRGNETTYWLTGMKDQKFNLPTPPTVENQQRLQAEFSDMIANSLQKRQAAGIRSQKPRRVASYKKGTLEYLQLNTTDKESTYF
T2 sequence (P25092 24-1073 R792S): as the sequence (P25092 24-1073) above, with R769S counted along it

For `CC(C)Cn1c(=O)n(C)c(=O)c2[nH]cnc21` [IBMX, 3-isobutyl-1-methylxanthine], the “Ser40 phosphorylation with PDE inhibition” value at human GUCY2C (HEK cultures, IBMX 100 μM, FIG. 5A) was “potentiated the increase in Ser40 phosphorylation as compared to guanylin administration”.
With `Nc1nc2c(nc(Br)n2[C@@H]2O[C@@H]3COP(=O)(O)O[C@H]3[C@H]2O)c(=O)[nH]1` [8-Bromo-cGMP], in series [1], the “P-Ser40 levels (Fold Change = ratio P-Ser40/Total Th)” value is “small but significant increase in P-Ser40 levels”.
Regarding “uroguanylin: natural agonistic ligand of GUCY2C; a 16 amino acid peptide (NDDCELCVNVACTGCL)”, the “P-Ser40 levels (Fold Change = ratio P-Ser40/Total Th)” value in the series with human GUCY2C was “increase P-Ser40 levels”.
With “guanylin: natural agonistic ligand of GUCY2C; a 15 amino acid polypeptide (PGTCEICAYAACTGC)”, in series [2], the “passage of the blood-brain barrier” value is on record as “rapidly enters the brain”. Also, the “boost in Ser40 phosphorylation upon guanylin treatment, R792S mutant compared to wt receptor” value with GUCY2C R792S mutant was determined as 1.5 fold. The “P-Ser40 levels (Fold Change = ratio P-Ser40/Total Th)” value in the series with human GUCY2C is “increase P-Ser40 levels”.

These data come from patent publication US20200009213A1, “Specific Increase of Dopamine Synthesis THrough Targeting of the Guanylate Cyclase 2C Receptor in the Treatment of Parkinson's Disease” (Universiteit van Amsterdam, priority 2017, published 2020).
